± gives the standard deviation of the averaged measurements.
Assay: total protein half-life in vivo (active degradation + dilution); higher = more stable protein
[1] = E. coli NCM3722 delta-clpP delta-lon delta-hslV, growth: N-lim chemostat, doubling time 6 h
[2] = E. coli NCM3722 delta-clpP, growth: N-lim chemostat, doubling time 6 h
[3] = E. coli NCM3722 delta-hslV, growth: N-lim chemostat, doubling time 6 h
[4] = E. coli NCM3722 delta-lon, growth: N-lim chemostat, doubling time 6 h
[5] = E. coli NCM3722 delta-smpB, growth: N-lim chemostat, doubling time 6 h
[6] = wild type E. coli NCM3722, growth: C-lim chemostat, doubling time 3 h
[7] = wild type E. coli NCM3722, growth: C-lim chemostat, doubling time 6 h
[8] = wild type E. coli NCM3722, growth: C-lim chemostat, doubling time 12 h
[9] = wild type E. coli NCM3722, growth: N-lim chemostat, doubling time 6 h
[10] = wild type E. coli NCM3722, growth: N-lim chemostat, doubling time 12 h
[11] = wild type E. coli NCM3722, growth: P-lim chemostat, doubling time 6 h
[12] = wild type E. coli NCM3722, growth: P-lim chemostat, doubling time 12 h

Row | Sequence | total protein half-life in vivo [1] [h] | total protein half-life in vivo [2] [h] | total protein half-life in vivo [3] [h] | total protein half-life in vivo [4] [h] | total protein half-life in vivo [5] [h] | total protein half-life in vivo [6] [h] | total protein half-life in vivo [7] [h] | total protein half-life in vivo [8] [h] | total protein half-life in vivo [9] [h] | total protein half-life in vivo [10] [h] | total protein half-life in vivo [11] [h] | total protein half-life in vivo [12] [h]
1 | MSKTFARSSLCALSMTIMTAHAAEPPTNLDKPEGRLDIIAWPGYIERGQTDKQYDWVTQFEKETGCAVNVKTAATSDEMVSLMTKGGYDLVTASGDASLRLIMGKRVQPINTALIPNWKTLDPRVVKGDWFNVGGKVYGTPYQWGPNLLMYNTKTFPTPPDSWQVVFVEQNLPDGKSNKGRVQAYDGPIYIADAALFVKATQPQLGISDPYQLTEEQYQAVLKVLRAQHSLIHRYWHDTTVQMSDFKNEGVVASSAWPYQANALKAEGQPVATVFPKEGVTGWADTTMLHSEAKHPVCAYKWMNWSLTPKVQGDVAAWFGSLPVVPEGCKASPLLGEKGCETNGFNYFDKIAFWKTPIAEGGKFVPYSRWTQDYIAIMGGR | 5.24 ± 0.43 | 5.67 ± 0.8 | 7.1 ± 0.7 | 7.128 ± 0.054 | 5.71 ± 0.53 | 3.27 ± 0.29 | 7.18 ± 0.46 | 13.3 ± 0.99 | 6.37 ± 0.074 | 14.3 ± 0.99 | 6.9 ± 1 | 13.8 ± 0.29
2 | MHPRFQTAFAQLADNLQSALEPILADKYFPALLTGEQVSSLKSATGLDEDALAFALLPLAAACARTPLSNFNVGAIARGVSGTWYFGANMEFIGATMQQTVHAEQSAISHAWLSGEKALAAITVNYTPCGHCRQFMNELNSGLDLRIHLPGREAHALRDYLPDAFGPKDLEIKTLLMDEQDHGYALTGDALSQAAIAAANRSHMPYSKSPSGVALECKDGRIFSGSYAENAAFNPTLPPLQGALILLNLKGYDYPDIQRAVLAEKADAPLIQWDATSATLKALGCHSIDRVLLA [P0ABF6] | 5.28 ± 0.35 | 5.6 ± 0.071 | 6 ± 1.1 | 6.28 ± 0.78 | 4.89 ± 0.18 |  | 6.09 ± 0.4 | 10.7 ± 0.78 | 5.04 ± 0.077 | 8.624 ± 0.078 | 5.88 ± 0.059 | 11.7 ± 0.35
3 | MTITDLVLILFIAALLAFAIYDQFIMPRRNGPTLLAIPLLRRGRIDSVIFVGLIVILIYNNVTNHGALITTWLLSALALMGFYIFWIRVPKIIFKQKGFFFANVWIEYSRIKAMNLSEDGVLVMQLEQRRLLIRVRNIDDLEKIYKLLVSTQ | 7.14 | 7.25 | 6.58 |  | 6.13 ± 0.82 | 2.77 ± 0.15 | 4.79 |  | 5.6 | 8.94 |  | 
4 | MEYQLTLNWPDFLERHWQKRPVVLKRGFNNFIDPISPDELAGLAMESEVDSRLVSHQDGKWQVSHGPFESYDHLGETNWSLLVQAVNHWHEPTAALMRPFRELPDWRIDDLMISFSVPGGGVGPHLDQYDVFIIQGTGRRRWRVGEKLQMKQHCPHPDLLQVDPFEAIIDEELEPGDILYIPPGFPHEGYALENAMNYSVGFRAPNTRELISGFADYVLQRELGGNYYSDPDVPPRAHPADVLPQEMDKLREMMLELINQPEHFKQWFGEFISQSRHELDIAPPEPPYQPDEIYDALKQGEVLVRLGGLRVLRIGDDVYANGEKIDSPHRPALDALASNIALTAENFGDALEDPSFLAMLAALVNSGYWFFEG | 5 ± 0.51 | 5.08 ± 0.63 | 4.45 ± 0.092 | 4.25 ± 0.14 | 4.63 ± 0.28 | 3.12 ± 0.54 | 5.25 ± 0.26 | 10.1 ± 1 | 4.6 ± 0.32 | 8.11 ± 0.15 | 6.71 ± 1.1 | 13 ± 0.99
5 | MDLASLRAQQIELASSVIREDRLDKDPPDLIAGADVGFEQGGEVTRAAMVLLKYPSLELVEYKVARIATTMPYIPGFLSFREYPALLAAWEMLSQKPDLVFVDGHGISHPRRLGVASHFGLLVDVPTIGVAKKRLCGKFEPLSSEPGALAPLMDKGEQLAWVWRSKARCNPLFIATGHRVSVDSALAWVQRCMKGYRLPEPTRWADAVASERPAFVRYTANQP |  | 5.52 ± 0.25 | 4.58 ± 0.4 | 4.952 ± 0.015 | 4.62 ± 0.2 | 3.05 ± 0.12 | 6.09 ± 0.24 | 11.3 ± 0.85 | 5.08 ± 0.14 | 8.84 ± 0.67 | 5.3 ± 0.39 | 9.801 ± 0.042
6 | MSESLSWMQTGDTLALSGELDQDVLLPLWEMREEAVKGITCIDLSRVSRVDTGGLALLLHLIDLAKKQGNNVTLQGVNDKVYTLAKLYNLPADVLPR | 6.59 ± 0.72 |  | 6.39 ± 0.34 | 5.57 ± 0.6 | 5.75 ± 0.51 | 2.98 ± 0.28 | 5.387 ± 0.018 | 10.9 ± 4.8 | 4.86 ± 0.53 | 10.2 | 5.332 ± 0.016 | 11.9 ± 0.66
7 | MSRFIPIELHHASRLLNHGPTVLITSFDEQSQRRNIMAAAWSMPVEFEPPRVAIVVDKSTWTRELIEHNGKFGIVIPGVAATNWTWAVGSVSGRDEDKFNCYGIPVVRGPVFGLPLVEEKCLAWMECRLLPATSAQEEYDTLFGEVVSAAADARVFVEGRWQFDDDKLNTLHHLGAGTFVTSGKRVTAG | 5.07 ± 0.36 | 4.49 ± 0.06 | 4.12 ± 0.3 | 4.25 ± 0.39 | 4.19 ± 0.066 | 2.96 ± 0.065 | 4.15 ± 0.89 | 9.97 ± 0.71 | 4.27 ± 0.46 | 6.92 ± 0.15 | 5.45 ± 0.67 | 10.4 ± 0.57
8 | MEPLREIRNRLLNGWQLSKMHTFEVAARHQSFALAAEELSLSPSAVSHRINQLEEELGIQLFVRSHRKVELTHEGKRVYWALKSSLDTLNQEILDIKNQELSGTLTLYSRPSIAQCWLVPALGDFTRRYPSISLTVLTGNDNVNLQRAGIDLAIYFDDAPSAQLTHHFLMDEEILPVCSPEYAQRHALTNTVINLCHCTLLHDRQAWSNDSGTDEWHSWAQHYAVNLPTSSGIGFDRSDLAVIAAMNHIGVAMGRKRLVQKRLASGELVAPFGDMTVKCHQHYYITTLPGRQWPKIEAFIIWLREQVKTTS | 5.88 | 5.73 ± 0.3 | 6.65 ± 0.47 | 7.48 ± 0.075 | 6.21 ± 1.6 | 2.74 |  | 11 ± 1.1 | 5.13 |  |  | 
